IntAct's records for PubMed 22522702

B1: ADP-ribosylation factor 6 (Mus musculus), P62331 (parent)
chain: MGKVLSKIFGNKEMRILMLGLDAAGKTTILYKLKLGQSVTTIPTVGFNVETVTYKNVKFNVWDVGGQDKIRPLWRHYYTGTQGLIFVVDCADRDRIDEARQELHRIINDREMRDAIILIFANKQDLPDAMKPHEIQEKLGLTRIRDRNWYVQPSCATSGDGLYEGLTWLTSNYKS
partner: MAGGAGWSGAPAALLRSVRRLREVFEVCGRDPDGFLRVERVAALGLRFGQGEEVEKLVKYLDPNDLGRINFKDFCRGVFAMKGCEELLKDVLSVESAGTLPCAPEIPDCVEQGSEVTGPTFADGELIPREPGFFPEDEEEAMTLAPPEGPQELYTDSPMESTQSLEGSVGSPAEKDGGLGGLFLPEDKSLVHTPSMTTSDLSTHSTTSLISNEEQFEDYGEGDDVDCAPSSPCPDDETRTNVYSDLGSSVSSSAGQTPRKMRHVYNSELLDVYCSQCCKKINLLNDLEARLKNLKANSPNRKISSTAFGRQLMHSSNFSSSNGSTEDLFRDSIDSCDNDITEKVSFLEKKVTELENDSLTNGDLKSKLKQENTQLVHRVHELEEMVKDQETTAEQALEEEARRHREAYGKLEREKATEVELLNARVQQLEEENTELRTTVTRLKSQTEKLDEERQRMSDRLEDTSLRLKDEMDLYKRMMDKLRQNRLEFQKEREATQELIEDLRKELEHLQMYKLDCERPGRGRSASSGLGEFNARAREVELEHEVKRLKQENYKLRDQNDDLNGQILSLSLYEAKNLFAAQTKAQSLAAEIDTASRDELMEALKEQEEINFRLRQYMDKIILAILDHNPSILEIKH
B2: ADP-ribosylation factor 6 (Mus musculus), P62331 (parent)
chain: B1 chain
partner: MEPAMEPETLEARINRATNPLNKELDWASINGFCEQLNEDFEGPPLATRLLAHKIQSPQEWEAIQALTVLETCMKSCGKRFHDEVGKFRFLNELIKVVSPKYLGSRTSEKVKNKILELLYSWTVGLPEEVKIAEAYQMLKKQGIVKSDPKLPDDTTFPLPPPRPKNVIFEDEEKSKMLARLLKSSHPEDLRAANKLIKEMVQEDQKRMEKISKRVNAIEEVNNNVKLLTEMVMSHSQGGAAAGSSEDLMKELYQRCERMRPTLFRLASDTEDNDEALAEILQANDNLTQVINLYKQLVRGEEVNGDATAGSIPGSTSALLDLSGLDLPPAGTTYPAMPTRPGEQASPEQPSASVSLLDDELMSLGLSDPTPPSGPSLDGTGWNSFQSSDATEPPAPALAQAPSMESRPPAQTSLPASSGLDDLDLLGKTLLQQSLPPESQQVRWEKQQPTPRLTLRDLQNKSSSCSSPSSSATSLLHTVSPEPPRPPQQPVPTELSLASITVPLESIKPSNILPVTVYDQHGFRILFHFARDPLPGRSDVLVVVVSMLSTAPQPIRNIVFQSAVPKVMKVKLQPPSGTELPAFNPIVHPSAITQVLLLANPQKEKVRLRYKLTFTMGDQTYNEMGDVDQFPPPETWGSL
B3: ADP-ribosylation factor 6 (Mus musculus), P62331 (parent)
chain: B1 chain
partner: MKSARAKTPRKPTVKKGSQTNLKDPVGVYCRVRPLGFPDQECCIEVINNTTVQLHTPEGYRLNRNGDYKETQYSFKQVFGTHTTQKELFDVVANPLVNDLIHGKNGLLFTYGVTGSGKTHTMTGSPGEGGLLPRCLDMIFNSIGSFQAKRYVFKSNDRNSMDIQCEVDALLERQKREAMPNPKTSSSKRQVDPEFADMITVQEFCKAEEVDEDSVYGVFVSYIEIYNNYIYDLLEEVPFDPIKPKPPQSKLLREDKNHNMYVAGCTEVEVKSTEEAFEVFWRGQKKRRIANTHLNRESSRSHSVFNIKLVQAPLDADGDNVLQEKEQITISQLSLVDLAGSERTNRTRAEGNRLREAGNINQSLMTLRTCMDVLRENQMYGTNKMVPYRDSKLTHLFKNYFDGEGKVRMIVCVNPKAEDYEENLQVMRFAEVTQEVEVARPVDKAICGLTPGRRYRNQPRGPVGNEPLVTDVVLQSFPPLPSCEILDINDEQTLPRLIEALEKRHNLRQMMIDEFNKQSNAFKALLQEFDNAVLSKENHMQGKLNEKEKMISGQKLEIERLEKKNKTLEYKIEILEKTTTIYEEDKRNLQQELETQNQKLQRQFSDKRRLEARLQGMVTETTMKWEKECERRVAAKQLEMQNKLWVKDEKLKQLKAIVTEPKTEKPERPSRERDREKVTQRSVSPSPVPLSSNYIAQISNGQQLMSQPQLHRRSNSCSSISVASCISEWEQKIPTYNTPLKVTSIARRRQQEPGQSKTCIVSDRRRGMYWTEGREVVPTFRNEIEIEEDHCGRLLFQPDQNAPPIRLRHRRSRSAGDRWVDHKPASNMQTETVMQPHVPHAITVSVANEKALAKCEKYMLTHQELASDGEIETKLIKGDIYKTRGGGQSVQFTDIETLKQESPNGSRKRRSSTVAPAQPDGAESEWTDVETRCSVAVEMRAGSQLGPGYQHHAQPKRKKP
B4: ADP-ribosylation factor 6 (Mus musculus), P62331 (parent)
chain: B1 chain
partner: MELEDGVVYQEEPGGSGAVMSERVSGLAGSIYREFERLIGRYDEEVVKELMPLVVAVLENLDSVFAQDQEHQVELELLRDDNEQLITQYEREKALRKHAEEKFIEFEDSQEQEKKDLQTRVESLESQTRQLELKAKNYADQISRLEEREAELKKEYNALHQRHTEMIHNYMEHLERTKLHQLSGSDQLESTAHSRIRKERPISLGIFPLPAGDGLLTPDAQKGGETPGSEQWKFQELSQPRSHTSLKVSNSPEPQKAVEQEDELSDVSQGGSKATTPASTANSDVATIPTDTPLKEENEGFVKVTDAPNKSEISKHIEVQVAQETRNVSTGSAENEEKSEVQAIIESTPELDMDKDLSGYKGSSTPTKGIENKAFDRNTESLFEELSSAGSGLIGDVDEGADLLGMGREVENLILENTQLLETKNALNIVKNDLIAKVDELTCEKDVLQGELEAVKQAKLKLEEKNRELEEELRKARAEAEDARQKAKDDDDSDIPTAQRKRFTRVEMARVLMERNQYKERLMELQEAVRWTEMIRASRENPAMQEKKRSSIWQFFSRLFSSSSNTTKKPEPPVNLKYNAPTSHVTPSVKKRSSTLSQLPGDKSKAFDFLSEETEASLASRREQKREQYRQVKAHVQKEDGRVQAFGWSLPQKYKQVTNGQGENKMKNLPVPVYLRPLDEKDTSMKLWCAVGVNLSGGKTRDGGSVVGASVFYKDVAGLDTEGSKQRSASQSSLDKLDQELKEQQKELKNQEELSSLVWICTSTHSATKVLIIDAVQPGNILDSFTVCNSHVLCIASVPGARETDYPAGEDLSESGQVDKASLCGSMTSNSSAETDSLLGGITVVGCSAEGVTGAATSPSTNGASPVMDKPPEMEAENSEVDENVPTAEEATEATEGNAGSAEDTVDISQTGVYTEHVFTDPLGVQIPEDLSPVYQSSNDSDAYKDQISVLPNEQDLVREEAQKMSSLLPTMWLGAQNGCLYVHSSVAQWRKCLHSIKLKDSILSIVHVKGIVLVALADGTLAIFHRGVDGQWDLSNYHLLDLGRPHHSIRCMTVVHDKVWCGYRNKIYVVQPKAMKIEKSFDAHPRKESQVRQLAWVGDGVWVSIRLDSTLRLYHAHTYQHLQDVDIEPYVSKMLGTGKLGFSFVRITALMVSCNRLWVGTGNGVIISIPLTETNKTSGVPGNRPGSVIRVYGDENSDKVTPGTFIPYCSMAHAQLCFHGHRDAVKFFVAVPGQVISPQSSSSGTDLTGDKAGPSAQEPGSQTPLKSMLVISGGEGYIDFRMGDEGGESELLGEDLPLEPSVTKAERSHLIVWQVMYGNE

Variants of: B1
Settings: with rfip4_human RAB11FIP4, Q86YS3

effect of a mutation on the interaction | Variant
disrupting interaction | Q67L
disrupting interaction | H76A

Variants of: B1
Settings: with rfip4_human RAB11FIP4, Q86YS3
Remark: another data set of the same source

effect of a mutation on the interaction | Variant
disrupting interaction | Y77A

Variants of: B2
Settings: with gga1_human GGA1, Q9UJY5

effect of a mutation on the interaction | Variant
disrupting interaction | H76A

Variants of: B2
Settings: with gga1_human GGA1, Q9UJY5
Remark: another data set of the same source

effect of a mutation on the interaction | Variant
disrupting interaction | Q67L
disrupting interaction | Y77A

Variants of: B3
Settings: with kif23_human KIF23, Q02241

effect of a mutation on the interaction | Variant
increasing interaction | Q67L

Variants of: B3
Settings: with kif23_human KIF23, Q02241
Remark: another data set of the same source

effect of a mutation on the interaction | Variant
disrupting interaction | Q67L
disrupting interaction | Y77A

Variants of: B3
Settings: with kif23_human KIF23, Q02241
Remark: another data set of the same source

effect of a mutation on the interaction | Variant
decreasing interaction | Q67L
decreasing interaction | H76A

Variants of: B3
Settings: with kif23_human KIF23, Q02241
Remark: another data set of the same source

effect of a mutation on the interaction | Variant
decreasing interaction | T27N

Variants of: B4
Settings: with jip4_human SPAG9, O60271

effect of a mutation on the interaction | Variant
disrupting interaction | Y77A
disrupting interaction | Q67L

Variants of: B4
Settings: with jip4_human SPAG9, O60271
Remark: another data set of the same source

effect of a mutation on the interaction | Variant
disrupting interaction | H76A
